The target in experiment [1] is bovine pancreatic trypsin (bovine). Put plainly: enzyme inhibition assay (chromogenic substrate), inhibition against inhibitor concentration; trypsin 400 nM incubated with 0 to 400 nM rSdPI for 30 min; 100 mM Tris-HCl pH 8.0, 10 mM CaCl2, 25°C.
Experiment [2] has the same target. Put plainly: enzyme inhibition assay (chromogenic substrate), Lineweaver-Burk plots and replot of the slopes; trypsin 400 nM pre-incubated with the inhibitor for 30 min; 100 mM Tris-HCl pH 8.0, 10 mM CaCl2, 25°C; substrate Nα-benzoyl-L-arginine 4-nitroanilide 0.1 to 0.8 mM; p-nitroaniline read at 405 nm for 5 min.

Numbering of substitutions follows the chain as printed. Names and notes keep the numbering of the source.

bovine pancreatic trypsin (bovine), sequence (P00760 24-246): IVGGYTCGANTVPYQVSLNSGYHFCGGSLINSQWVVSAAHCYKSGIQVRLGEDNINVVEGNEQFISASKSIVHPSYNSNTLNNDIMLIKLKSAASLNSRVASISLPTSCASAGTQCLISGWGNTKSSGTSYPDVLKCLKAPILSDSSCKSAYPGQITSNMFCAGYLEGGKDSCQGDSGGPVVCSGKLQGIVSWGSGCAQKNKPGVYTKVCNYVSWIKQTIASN

B1: recombinant SdPI peptide (scorpion-derived protease inhibitor), wild type (peptide)
chain: KNKCQLPSDVGKGKASFTRYYYNEEGGKCETFIYGGVGGNSNNFLTKEDCCRECAQGSC
In turn, B1 yielded a stoichiometry N in experiment [1] of 1. The Ki in experiment [2] is 160 nM.

B2: SdPI K12A mutant (peptide)
chain: B1 chain with K12A
As to B2, the Ki in experiment [2] worked out at 290 nM. This counts as sub-micromolar.

B3: SdPI G13F mutant (peptide)
chain: B1 chain with G13F
B3 displayed a Ki in experiment [2] of 260 nM.

B4: SdPI Ala15Phe mutant (peptide)
chain: B1 chain with A15F
As for B4, the inhibition constant (Ki) in experiment [2] was 62000 nM.

Broadly, the stoichiometry N is a count of units in the complex or per binding partner. As a reminder, the Ki is a measure of affinity in units of concentration, obtained from inhibition or displacement. Read a high Ki as lower affinity.

The values above are taken from publication PMC3210814.
